From paper PMC4081063, “The conformational state of the nucleosome entry–exit site modulates TATA box-specific TBP binding”

Legend:
[1] = molecular target: T1, TBP (human TATA binding protein) (Homo sapiens, UniProt P20226 1-339); assay: bulk FRET; similar to TATA-14E; stoichiometry 1.1 TBP:DNA; 20 mM Tris pH 7.9, 4 mM MgCl2, 1 mM DTT, 5% glycerol, 5-150 mM KCl as indicated, 1 nM labeled DNA (1-5 nM in Results), 20 min; 25 C (37 C tested); conditions: protein: recombinant; label: 5' ends labeled with donor and acceptor; blunt
[2] = molecular target: T1, TBP (human TATA binding protein); assay: bulk FRET; 150 mM KCl, 4 mM Mg2+; 20 mM Tris pH 7.9, 4 mM MgCl2, 1 mM DTT, 5% glycerol, 5-150 mM KCl as indicated, 1 nM labeled DNA (1-5 nM in Results), 20 min; 25 C (37 C tested); conditions: protein: recombinant, blunt
[3] = molecular target: T1, TBP (human TATA binding protein); assay: bulk FRET; 50 mM KCl, 4 mM Mg2+; 20 mM Tris pH 7.9, 4 mM MgCl2, 1 mM DTT, 5% glycerol, 5-150 mM KCl as indicated, 1 nM labeled DNA (1-5 nM in Results), 20 min; 25 C (37 C tested); conditions: protein: recombinant; label: 5' ends labeled with donor (Atto-488) and acceptor (Atto-633 or Atto-647N); blunt
[4] = molecular target: T1, TBP (human TATA binding protein); assay: bulk FRET; 5-150 mM KCl; biphasic at low salt; similar at 25 and 37 C; 20 mM Tris pH 7.9, 4 mM MgCl2, 1 mM DTT, 5% glycerol, 5-150 mM KCl as indicated, 1 nM labeled DNA (1-5 nM in Results), 20 min; 25 C (37 C tested); conditions: protein: recombinant; label: 5' donor and internal amino-dT acceptor 18 bp away, same strand; blunt

T1 sequence (P20226 whole entry): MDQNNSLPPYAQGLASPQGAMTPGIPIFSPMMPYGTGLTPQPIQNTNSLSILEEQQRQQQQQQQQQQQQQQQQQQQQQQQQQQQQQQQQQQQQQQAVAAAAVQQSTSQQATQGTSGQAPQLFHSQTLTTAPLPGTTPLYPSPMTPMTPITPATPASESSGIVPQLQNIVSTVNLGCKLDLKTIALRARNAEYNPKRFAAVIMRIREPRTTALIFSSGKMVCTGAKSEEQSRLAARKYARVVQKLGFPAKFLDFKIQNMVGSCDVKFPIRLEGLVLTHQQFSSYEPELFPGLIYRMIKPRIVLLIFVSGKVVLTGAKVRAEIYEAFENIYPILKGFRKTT

B1: TATA-14E* (dsDNA)
DNA 1: GGGTATAAAAGGGG
DNA 2: CCCCTTTTATACCC
- binding result [1]: binds

B2: TATA-14E (dsDNA)
DNA 1: GGCTATAAAAGGGG
DNA 2: CCCCTTTTATAGCC
- Kd ([2]; label: 5' ends labeled with donor (Atto-488) and acceptor (Atto-633 or Atto-647N)): 10 ± 3 nM
- Kd [3]: 5 ± 1 nM

B3: TATA-18I (dsDNA)
DNA 1: TGGGGTATAAAAGGGGGTGGACACGTG
DNA 2: CACGTGTCCACCCCCTTTTATACCCCA
- binding result [4]: binds

B4: TATA-14I (dsDNA)
DNA 1: TGGTATAAAAGGGTGCGGACACGTG
DNA 2: CACGTGTCCGCACCCTTTTATACCA
- Kd ([2]; label: 5' donor and internal amino-dT acceptor 14 bp away, same strand): 6 ± 1 nM
